{"source": "patent US20170298146A1", "about": "(MODIQUEST B V, published 2017)", "binders": {"B1": {"name": "RhmAb2.102 (antibody, human IgG1, lambda)", "heavy": "not shown", "light": "QSVLTQPPSMSAAPGQKVTISCSGSSSNIGNNYVSWYQQVPGTAPKLLIYDDNKRPSGIPGRFSGSKSATSATLGITGLQAGDEADYYCGSWDDNLSVVLFGGGTKLTVLGQPKAAPSVTLFPPSSEELQANKATLVCLISDFYPGAVTVAWKADSSPVKAGVETTTPSKQSNNKYAASSYLSLTPEQWKSHRSYSCQVTHEGSTVEKTVAPTECS", "notes": "Human IgG1 lambda; also called Rhm2.102"}}, "key": {"[1]": {"target": "T1, Histone 2A citrulline-containing peptide 10 (human, also: biotin label)", "T1 peptide": "TRIIP[Cit]HLQLAI", "assay": "peptide ELISA, 2 ug/well", "method": "(§1) Biotin and citrulline-containing peptides derived from histone 2A were immobilized on NEUTRAVIDIN®-coated 96-well ELISA plates (0.3 μg/well). CFC-1 and CFC-0 were coated at the same concentration and served as positive and negative controls respectively for specific anti-citrulline reactivity and as coating controls. Non-coated wells were used to test for aspecific binding of the antibodies. […] Detection of bound anti-citrulline antibodies was performed by incubating the wells with rabbit-anti-human-HRP (1:2000) for one hour at RT followed by incubation with TMB substrate. The resulting OD (y-axis) is a measure for antibody binding.\n(§2) Ninety-six-well ELISA plates were coated with NEUTRAVIDIN® (0.1 μg/well) by overnight incubation at 4° C. Wells were washed five times with PBS-TWEEN®-20 (PBS-T) and blocked by a one-hour incubation with PBS-T+1% Bovine serum albumin (BSA) at room temperature (RT). After five more washes with PBS-T, wells were incubated for one hour at RT with histone-derived citrulline and biotin-containing peptides (0.3 μg/well). […] Wells were washed five times with PBS-T and incubated with rabbit-anti-human-HRP (1:2000) for one hour at RT followed by five washes with PBS-T and three wash steps with PBS. Wells were incubated for five minutes with TMB substrate before stopping the reaction with 2 M H₂SO₄. Optical density was measured by 450 nm and is a measure for the affinity of the antibodies used."}, "[2]": {"target": "T2, CFC-1", "T2 construct": "Positive control for anti-citrulline reactivity; also called cfc1 XG", "assay": "peptide ELISA, 2 ug/well", "method": "as §1, §2"}, "[3]": {"target": "T3, Histone 2A citrulline-containing peptide 12 (human, also: biotin label)", "T3 peptide": "NKLLG[Cit]VTIAQG", "assay": "peptide ELISA, 2 ug/well", "method": "as §1, §2"}, "[4]": {"target": "T4, Histone 2A citrulline-containing peptide 9 (human, also: biotin label)", "T4 peptide": "DNKKT[Cit]IIPRHL", "assay": "peptide ELISA, 2 ug/well", "method": "as §1, §2"}, "[5]": {"target": "T5, Histone 2A citrulline-containing peptide 3 (human, also: biotin label)", "T5 peptide": "KSRSS[Cit]AGLQFP", "assay": "peptide ELISA, 2 ug/well", "method": "as §1, §2"}, "[6]": {"target": "T6, Histone 2A citrulline-containing peptide 8 (human, also: biotin label)", "T6 peptide": "AGNAA[Cit]DNKKTR", "assay": "peptide ELISA, 2 ug/well", "method": "as §1, §2"}, "[7]": {"target": "T7, Histone 2A citrulline-containing peptide 7 (human, also: biotin label)", "T7 peptide": "GNYSE[Cit]VGAGAP", "assay": "peptide ELISA, 2 ug/well", "method": "as §1, §2"}, "[8]": {"target": "T8, Histone 2A citrulline-containing peptide 1 (human, also: biotin label)", "T8 construct": "also called AAASGXGKQGGK", "T8 peptide": "AAASG[Cit]GKQGGK", "assay": "peptide ELISA, 2 ug/well", "method": "as §1, §2"}, "[9]": {"target": "T9, Histone 2A citrulline-containing peptide 11 (human, also: biotin label)", "T9 peptide": "LQLAI[Cit]NDEELN", "assay": "peptide ELISA, 2 ug/well", "method": "as §1, §2"}, "[10]": {"target": "T10, Histone 2A citrulline-containing peptide 4 (human, also: biotin label)", "T10 peptide": "QFPVG[Cit]VHRLLR", "assay": "peptide ELISA, 2 ug/well", "method": "as §1, §2"}, "[11]": {"target": "T11, msFibα XG (mouse, X at position 8 is citrulline; biotin label)", "T11 peptide": "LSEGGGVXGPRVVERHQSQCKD", "assay": "peptide ELISA, 0.016 ug/well", "method": "as §1, with “fibrinogen and vimentin” for “histone 2A”\n(§3) Biotin-labeled and citrulline-containing fibrinogen and vimentin peptides (Table 5) were also tested for reactivity with the therapeutic antibodies. Peptides were coated on 96-well NEUTRAVIDIN®-ELISA plates."}, "[12]": {"target": "T12, huFibα XH (human, X at position 15 is citrulline; biotin label)", "T12 peptide": "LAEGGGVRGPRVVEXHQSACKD", "assay": "peptide ELISA, 0.016 ug/well", "method": "as §1, with “fibrinogen and vimentin” for “histone 2A”\nas §3"}, "[13]": {"target": "T2, CFC-1", "assay": "peptide ELISA, 0.016 ug/well", "method": "as §1, with “fibrinogen and vimentin” for “histone 2A”\nas §3"}, "[14]": {"target": "T13, msFibα XH (mouse, X at position 15 is citrulline; biotin label)", "T13 peptide": "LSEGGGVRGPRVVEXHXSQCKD", "assay": "peptide ELISA, 0.016 ug/well", "method": "as §1, with “fibrinogen and vimentin” for “histone 2A”\nas §3"}, "[15]": {"target": "T14, huFibα XG (human, X at position 8 is citrulline; biotin label)", "T14 peptide": "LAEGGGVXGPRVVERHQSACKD", "assay": "peptide ELISA, 0.016 ug/well", "method": "as §1, with “fibrinogen and vimentin” for “histone 2A”\nas §3"}, "[16]": {"target": "T15, human recombinant histone H2A (human)", "T15 construct": "Non-deiminated", "assay": "ELISA, 0.4 ug/well", "method": "(§4) CFC-1 and CFC-0 were coated at the same concentration and served as positive and negative controls, respectively, for specific anti-citrulline reactivity and as coating controls. Non-coated wells were used to test for aspecific binding of the antibodies. […] Detection of bound anti-citrulline antibodies was performed by incubating the wells with rabbit-anti-human-HRP (1:2000) for one hour at RT followed by incubation with TMB substrate. The resulting OD (y-axis) is a measure for antibody binding. H1=recombinant histone 1; H1/p2=huPAD2 recombinant histone 1; H1/p4=huPAD4 recombinant histone 1 and so forth (x-axis)."}, "[17]": {"target": "T2, CFC-1", "assay": "ELISA, 0.4 ug/well", "method": "as §4"}, "[18]": {"target": "T16, huPAD2 deiminated human recombinant histone H2B (human)", "T16 construct": "also called H2B/p2", "assay": "ELISA, 0.4 ug/well", "method": "as §4"}, "[19]": {"target": "T17, huPAD4 deiminated human recombinant histone H3 (human)", "T17 construct": "also called H3/p4", "assay": "ELISA, 0.4 ug/well", "method": "as §4"}, "[20]": {"target": "T18, huPAD4 deiminated human recombinant histone H2A (human)", "T18 construct": "also called H2A/p4; huPAD4 deiminated histone 2A", "assay": "ELISA, 0.4 ug/well", "method": "as §4"}, "[21]": {"target": "T19, huPAD2 deiminated human recombinant histone H3 (human)", "T19 construct": "also called H3/p2", "assay": "ELISA, 0.4 ug/well", "method": "as §4"}, "[22]": {"target": "T20, huPAD2 deiminated human recombinant histone H2A (human)", "T20 construct": "also called H2A/p2", "assay": "ELISA, 0.4 ug/well", "method": "as §4"}, "[23]": {"target": "human recombinant histone H4 (human, UniProt P62805 2-103)", "assay": "ELISA, 0.4 ug/well", "method": "as §4"}, "[24]": {"target": "T21, huPAD4 deiminated human recombinant histone H2B (human)", "T21 construct": "also called H2B/p4", "assay": "ELISA, 0.4 ug/well", "method": "as §4"}}, "note": "Non-standard residues stand in square brackets, D forms with d. No end group written: not given here. Cit = NC(=O)NCCC[C@H](N)C(=O)O"}
{"binder": "B1", "values": [{"measurement": "OD", "setting": "[1]", "result": 0.07, "unit": "OD"}, {"measurement": "OD", "setting": "[2]", "result": 3.21, "unit": "OD"}, {"measurement": "OD", "setting": "[3]", "result": 0.067, "unit": "OD"}, {"measurement": "OD", "setting": "[4]", "result": 0.063, "unit": "OD"}, {"measurement": "OD", "setting": "[5]", "result": 0.286, "unit": "OD"}, {"measurement": "OD", "setting": "[6]", "result": 0.06, "unit": "OD"}, {"measurement": "OD", "setting": "[7]", "result": 0.059, "unit": "OD"}, {"measurement": "OD", "setting": "[8]", "result": 3.05, "unit": "OD"}, {"measurement": "OD", "setting": "[9]", "result": 0.067, "unit": "OD"}, {"measurement": "OD", "setting": "[10]", "result": 1.3, "unit": "OD"}, {"measurement": "OD", "setting": "[11]", "result": 0.107, "unit": "OD"}, {"measurement": "OD", "setting": "[12]", "result": 0.08, "unit": "OD"}, {"measurement": "OD", "setting": "[13]", "result": 1.22, "unit": "OD"}, {"measurement": "OD", "setting": "[14]", "result": 0.081, "unit": "OD"}, {"measurement": "OD", "setting": "[15]", "result": 0.103, "unit": "OD"}, {"measurement": "OD", "setting": "[16]", "result": 0.071, "unit": "OD"}, {"measurement": "OD", "setting": "[17]", "result": 3.12, "unit": "OD"}, {"measurement": "OD", "setting": "[18]", "result": 0.06, "unit": "OD"}, {"measurement": "OD", "setting": "[19]", "result": 0.166, "unit": "OD"}, {"measurement": "OD", "setting": "[20]", "result": 2.72, "unit": "OD"}, {"measurement": "OD", "setting": "[21]", "result": 1.18, "unit": "OD"}, {"measurement": "OD", "setting": "[22]", "result": 3.08, "unit": "OD"}, {"measurement": "OD", "setting": "[23]", "result": 0.091, "unit": "OD"}, {"measurement": "OD", "setting": "[24]", "result": 0.054, "unit": "OD"}]}
